From paper PMC8528721, “Hop2 interacts with the transcription factor CEBPα and suppresses adipocyte differentiation” (The Journal of Biological Chemistry, 2021)

T1: CEBPδ in nuclear extracts of COS1 cells (UniProt Q00322 1-268)
T1 sequence (looked up): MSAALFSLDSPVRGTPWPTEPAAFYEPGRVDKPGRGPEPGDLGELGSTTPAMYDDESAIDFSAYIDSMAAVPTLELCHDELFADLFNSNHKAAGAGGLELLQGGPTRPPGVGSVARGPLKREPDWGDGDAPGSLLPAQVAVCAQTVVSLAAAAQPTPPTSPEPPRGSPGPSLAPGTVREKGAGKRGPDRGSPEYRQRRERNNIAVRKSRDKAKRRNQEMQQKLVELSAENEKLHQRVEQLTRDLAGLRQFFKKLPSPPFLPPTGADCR

T2: endogenous CEBPβ (CCAAT enhancer binding protein beta) (mouse (endogenous in mouse visceral …, UniProt P28033-1 1-296))
T2 sequence (looked up): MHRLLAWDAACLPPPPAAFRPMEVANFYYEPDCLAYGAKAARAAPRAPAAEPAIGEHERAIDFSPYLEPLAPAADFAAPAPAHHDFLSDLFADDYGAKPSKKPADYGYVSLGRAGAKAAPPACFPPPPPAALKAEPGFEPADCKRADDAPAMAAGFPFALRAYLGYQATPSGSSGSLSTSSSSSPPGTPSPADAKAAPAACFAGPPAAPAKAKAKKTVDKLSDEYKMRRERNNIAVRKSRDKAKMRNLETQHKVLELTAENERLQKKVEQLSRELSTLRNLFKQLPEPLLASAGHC


What was measured:
[1] = molecular target: T1, CEBPδ in nuclear extracts of COS1 cells; test: cell-based or functional assay
[2] = molecular target: Flag-tagged CEBPα (UniProt P53566 1-359); test: cell-based or functional assay
Chain of Flag-tagged CEBPα (P53566 whole entry): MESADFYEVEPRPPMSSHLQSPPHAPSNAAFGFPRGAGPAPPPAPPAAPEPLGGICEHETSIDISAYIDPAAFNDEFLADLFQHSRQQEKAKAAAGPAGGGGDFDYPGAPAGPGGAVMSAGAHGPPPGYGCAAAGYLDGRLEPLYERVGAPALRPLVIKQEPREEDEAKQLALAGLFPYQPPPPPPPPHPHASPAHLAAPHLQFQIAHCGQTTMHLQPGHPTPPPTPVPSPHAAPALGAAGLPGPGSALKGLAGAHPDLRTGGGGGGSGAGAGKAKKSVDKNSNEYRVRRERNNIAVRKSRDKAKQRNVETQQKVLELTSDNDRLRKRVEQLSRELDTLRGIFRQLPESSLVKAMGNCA

[3] = molecular target: T2, endogenous CEBPβ (CCAAT enhancer …); test: cell-based or functional assay
[4] = molecular target: His-CEBPα (UniProt P53566 1-359); test: EMSA; no Hop2; EMSA: 5 pmol probe, room temperature, 10 min; buffer, salt and pH not given (refs 36, 55); settings: protein: recombinant; tags: His; chain copies: 2; label: 32P; self-annealed, two copies of the strand; 20 bp duplex with 5' overhang 4 nt (GATC) at both ends
Chain of His-CEBPα (P53566 whole entry): as above

C3-Luc reporter activity in COS1 cells cotransfected with CEBPδ and Hop2 (5.7-fold brought down to 2.2-fold) [1] | Leptin-Luc reporter activity in COS1 cells cotransfected with CEBPδ and Hop2 (31.9- to 1.4-fold) [1] | C3-Luc reporter activity in COS1 cells cotransfected with CEBPα and Hop2 (6.1-fold brought down to 1.6-fold) [2] | Leptin-Luc reporter activity in COS1 cells cotransfected with CEBPα and Hop2 (35.7- to 12.2-fold) [2] | C3-Luc reporter activity in COS1 cells cotransfected with CEBPβ and Hop2 (4.5-fold brought down to 3.1-fold) [3] | Leptin-Luc reporter activity in COS1 cells cotransfected with CEBPβ and Hop2 (21.0- to 1.7-fold) [3] | Binder | binding result [4]
61 % suppression | 97 % inhibition | 74 % suppression | 66 % inhibition | 31 % suppression | 92 % inhibition | hemagglutinin (HA)-tagged Hop2 (natural protein, UniProt O35047 1-217, looked up) MSKSRAEAAAGAPGIILRYLQEQNRPYSAQDVFGNLQKEHGLGKAAVVKALDQLAQEGKIKEKTYGKQKIYFADQNQFDTVSDADLHGLDASIVALTAKVQSLQQSCRHMEAELKELTSALTTPEMQKEIQELKKECAQYTERLKNIKAATNHVTPEEKEKVYRDRQKYCKEWRKRKRMTTELCDAILEGYPKSKKQFFEEVGIETDEDHNVLLPDP | 
 |  |  |  |  |  | CEBP consensus palindrome probe (dsDNA) DNA 1: GATCTGCAGATTGCGCAATCTGCA DNA 2: GATCTGCAGATTGCGCAATCTGCA | binds
